A short description of the data set: soluble on expression in E. coli; label from the status in PepcDB or PDB records.
Take “MSLRDQFQLAIRVADLLQHITQMKRGQGYGFKEEYEALPEGQTASWDTAKEDENRNKNRYGNIISYDHSRVRLLVLDGDPHSDYINANYIDGYHRPRHYIATQGPMQETVKDFWRMIWQENSASIVMVTNLVEVGRVKCVRYWPDDTEVYGDIKVTLIETEPLAEYVIRTFTVQKKGYHEIRELRLFHFTSWPDHGVPCYATGLLGFVRQVKFLNPPEAGPIVVHCSAGAGRTGCFIAIDTMLDMAENERVVDIFNCVRELRAQRVNLVQTEEQYVFVHDAILEACLCGNTAIPVCEFRSLYYNISRLDPQTNSSQIKDEFQTLNIVTPRVRPEDCSIGLLPRNHDKNRSMDVLPLDRCLPFLISVDGESSNYINAALMDSHKQPAAFVVTQHPLPNTVADFWRLVFDYNCSSVVMLNEMDTAQFCMQYWPEKTSGCYGPIQVEFVSADIDEDIIHRIFRICNMARPQDGYRIVQHLQYIGWPAYRDTPPSKRSLLKVVRRLEKWQEQYDGREGRTVVHCLNGGGRSGTFCAICSVCEMIQQQNIIDVFHIVKTLRNNKSNMVETLEQYKFVYEVALEYLSSFEGHHHHHH”: the “soluble on expression in E. coli” value is listed as “soluble”. Take “MSLRDSRYYCRLFSPAAVRGGIRRISAIYLNPSAFMSSLPITDRKIRFGLVGCGRISKNHIGAIAQHGDRAELVEICDTNPEALQAAEAATGARPFSSLSDMLAQGNADALVLATPSGLHPWQAIEVAQAGRHVVSEKPMATRWEDGKRMVKACDEAGVRLFVVKQNRRNATLQLVKKAIEQGRFGRIYMVTVNVFWTRPQEYYDAARWRGKWEWDGGAFMNQASHYVDLLDWLVGPVESVYAYTATLARRIEAEDTGVAALRWRHGAMGSINVTMLTYPQNLEGSITILGEKGTVRVGGVAVNRIDEWKFAEPHPDDDKIREANYETTSVYGFGHPLYYDNVINCLRGDCEPETDGREGLQSLALLTAIYRSARDGVRIPLPLDEGHHHHHH”: the “soluble on expression in E. coli” value is given as “soluble”. Consider “MSLRDYRYSDAHVHYVDFFQESEGMPRLLEAMDKGRVDHVMLSGVAVAKKWHKDEPKRPRYYAGDDAGAYWYSATDVIVAAAVKSLPAEQRRRVHPFLTGFNPTDKNADAHIRRMLELDPGLWQGIGEIFTRHDDLTALTYGDVPRANNEALARVYHLAAEFDLPVLLHANVTSKRERNPLYLAEIEEPLRNHPHVRFIWAHAGTSMEIHRHQKKLDFLLPTLRRLLQRYPNLYIDLSWSVLRPYLLDEQGKPDPQWLALVERFPQRFMLGSDVVGQFDSLPELMASFDPFLDALPEQVARQVARDNFLAVLPREGHHHHHH”, for which the “soluble on expression in E. coli” value is reported as “soluble”. As for “MSLREIVLINITGVDRPGLTAAITGVLAQGGVNILDIGQAVIHDTLSFGILVEIPDTVQGSSVLKDILFTAYKLDQQVRFTAVSEEGYQHWVEGQGKARHIVTLLTRKVTAEQLQCVSAITAKYGLNIDQIDRLSGRMPLDTPADKGKGCIEFTVRGEPADPKAMQAEFLAVAQELNVDIAFQQDSLFRRNRRLAVFDMDSTLIEAEVIDELAKAAGVGEQVAEITERAMRGELDFSESFKERLALLKGLDVGVLDEIGASLRLTEGAETLFSELKRLGYKTAILSGGFTYFAKQLQAKLGIDYVYANELEVVDGKVTGVAVEPIVNAQRKADLLRELAHKEGLSLEQTIAVGDGANDLPMLAIAGLGVAFRAKPLVKQSAKQAISTLGLDGVLYLLGEGHHHHHH”, the “soluble on expression in E. coli” value is “soluble”. “MSLREIVWVHSQRIAPYKTLILNELRYYPLELDPTPFNALVFTSKNAVFSLLETLNNSPKLKTLQNIPAYALSEPTAKTLQDHHFKVAFIGKKAHGKEFAQEILPLLKGKSVLYLRAKEIASSLDTILLEHGIDFKQAVVYENKLKHLTLSEQNALKPKEKSVLIFTAISHAKAFLHYFEFLENYTAISIGNTTALYLQEQGIPSYIAKKPSLEACLELALNLKSEGHHHHHH”: the “soluble on expression in E. coli” value is reported as “soluble”. In the case of “MSLRESMRIELELQTDNFTVIPYNHQYYLASAIYNKIHSANPAYAKRLHNYQKFKFFTFSLLQIRKRVIRKEGIETIDGKAYLYISSPNNEFIENFVAGLLEDGKLRVGNVEFFVRKAKILPIPKKFNILKTISPIYLKTMIETEDGLKTYDLLPNNSKFYENLKNNLKKKYEAFYNEKCDMNFEFEVLKFRPKRMRIKNDIYCRCSEMVFKVWGDYDLIKFGYECGFGEKNSMGFGMVVNVEDKNQKNKKLKTKIEGHHHHHH”, the “soluble on expression in E. coli” value is “soluble”.

As for “MSLREVALKILIVEDDTDAREWLSTIISNHFPEVWSAGDGEEGERLFGLHAPDVIITDIRMPKLGGLEMLDRIKAGGAKPYVIVISAFSEMKYFIKAIELGVHLFLPKPIEPGRLMETLEDFRHIKLAKLKKEEAEQERIRSLLFESKKELIRLIAHHWRQPLNVISITAENIKLNLDERGIEGHEDTHHLADKIVTESLRLSRVISRFSDTFFAKEEVGRHFGLHTVLKDAFEIAEPLAQEARCLLEIEGNDEVIFGLKGMLVQILLEVFKAIMALCDQVNRGELLVRVVCESFEGEVKIWMADVACAGRCWSEVMFEPFAGGFEEKRRDMELFVAQHLLRRYFDGMIKIVDRGEIRGLEITLSRNPKKFNSPLAEGHHHHHH”, the “soluble on expression in E. coli” value is “soluble”. In the case of “MSLRFIDKLYQANLGKLTAGISPAALGTAYYSWFAQLLQSPGSMLRLAYYPLLHANDYLSNLFKYDKPRDGKDVRFHTENWSYYPWRLWAEQFLQFEDWCLQASSKVPGIPLHVKRTVTFSTRQILDALSPSNFVLTNPDLLQETIRSNGQNLIRGTELAFQDFVEKITGSPPAGVENFIPGKQVAVTEGKVVYSNHLIELIQYTPQTEKVYKEGHHHHHH”, the “soluble on expression in E. coli” value is “soluble”.

As for “MSLRGLSTDHTTQIVNLEDNTQDLLLLLSLFKKITNVNPSKNFNVILASSLNEVGTLKVILNLYSSAHLIRINDEPILGQITLTFISELCSIEPIAAKLINSGLYSVLLESPLSVAIQQGDIKPEFSPRLHNIWSNGLLSIVLLLLSQFGIKVLPETCLFVSYFGKQIKSTIYNWGDNKLAVSSSLIKETNQLVLLQKMLNLLNYQELFIQPKNSDDQQEAVELVIGLDSEHDKKRLSAALSKFLTHPKYLNSRIIPTTLEEQQQLEDESSRLEFVKGISRDIKALQDSLFEGHHHHHH”, the “soluble on expression in E. coli” value is given as “not soluble”. “MSLRIKLLLRFKPPFLIPYNYPRYLYSFLLRAIELADKEVAGRIHNNKRDIKFVASKFMPIGSTKRLEQGLLVESGTVELYVGSTEDIILESLVRGLGQGVGMLHVRGQRLLSYEAELEEIPKHLSGKRFKTLSPVSVYHNNPPNGFRQWDLSPVGPPNSPFENEPKVWKELLFENLKSKYMMVYGEPYEGSFDIRVLTKKPKSRRLLVKIDERTGKPIYARVWEFDFKMWGEEELLRVAYELGIGMRNPHGFGMVEVIEGHHHHHH”: the “soluble on expression in E. coli” value is reported as “soluble”.

Turning to “MSLRIKVCGIKRVEDAVMAAYCGADAIGLVVGRKHNSDDFIDKHLAQKIVRECPPYISPVLVTELDDAEEISGLVHETGVTSVQLHSDCTVDSIISLRKTFPNIKIIKNFHVIGPGVIHAMKPFESVVDAFILDTLDLANDKVGSTGLVHDWSISRKIVKEVSRPVILAGGLTPENVGEAIRVVNPYGVDASSGLKDSNGFKDEMKVINFVHRAKNDFFKVRNLSLENEGHHHHHH”, the “soluble on expression in E. coli” value is “soluble”. Then “MSLRILGRASSINVRKVLWACAEFEIAFEREDWGSGFKATDSTEFLALNPNAMIPVIQDGDFTLWESNSIIRYLASRYGATAFYPGEAQARARIDQWIDWQASDLNRSWSYAFMSLVRHSPAHQDPQALAAGCAEWSRYMRILDRQLASTGAYVAGSQFTLADIPIGLSVNRWFETPFEHPHLPAVRDYYERLSERPAYHLHGRNGTEGHHHHHH”, with “soluble”.

As to “MSLRILITGNMGYIGPVVARHLRQQYPDAWLVGLDRGWFAHCLSDPRQLPEVVLDQQWFGDVRDLTAQQLSGFDGVVHLAAISNDAMGKRFEQVTDAINCRASVAVAQAAAQAGVKHFVFASSCSVYGAAADGTPRSESSAVAPLTAYAHSKIDTERALAQLETDMVITCLRFATACGASPRLRLDLVLNDFVASAVANGTVEVLSDGSPWRPLIHVRDMARAIDWALGRTPLAGGRFLAVNAGAEQWNVQIRDLAQAVGAAMPSATVSISTTAPADNRSYRVDFSLFQRLAPQHQPQQTLQSTITELRDDLLRAGFADGDFRQSSDFIRLRILQQLVDSGALAADLRAEGHHHHHH”, the “soluble on expression in E. coli” value was “soluble”. The same measure for “MSLRKNESIRLIALGGVGEIGKNMYLAEVDEDLYVIDAGLMFPENEMLGIDIVIPDVSYLVQNKDRIRGIFLTHGHEDHIGALSYVLKKVSVPVYGTKLTLALAKAKMKEQDYRGKAELIEINSDSVLEFEHSSVSFFRTNHSIPDSVGICIHTSEGSIVYTGDFKFDQAAPELYKAEIGKMAGIGDNGVLCLLSDSTDAERPGYSTSEAVVQKAMAHAFYSAKGRVIAACFASDLIQIQHIFDAAEESGRKVAVAGKSIQKVYDLAVQLGYLAVKDDILIPLSELGSFRDHEVVILTAGSQGEPIEALQKMAKRTHRQVTIQEGDTVYLAAAPIRGGEVFIYKTMDMLYRAGATVITGKNSATASSHGSQEELKFMINLMKPKHFIPVHGEYKTLKSHGKLAAECGISQDSILIPEKGDVFEIKDGRIKQSGRVPAGNVLIDGIGVGDVGNIVLRDRRLLSQDGILIVVVTLNRHDKQIAAGPEIISRGFVYVRESEKLLVQAADMVKEIVHRGSQKESFDWAAVKQDMRDELNQFFYEKTKRRPMILPIIMEVKQEGHHHHHH”: “soluble”. Consider “MSLRKVVILTLVTLFTCVEYSQAQTTEKEMTRQEKKAAQEALDKMLFQEAKEAIDNQTFVLEADRVYFKYGTSAFVSSNTNFVGLDGDKAVVQVAFNVPFSGPNGLGGITVDGNASNYKVKTDKKGNIHVSMNVMGIGISAQVNIDIPYGSNNATVDILPNFNSSHMTLSGQILPLKKANVFKGRSLEGHHHHHH”, for which the “soluble on expression in E. coli” value is given as “soluble”. Consider “MSLRQVIPIPSPPAKYLLPEVTVLDYGKKCVVIDLDETLVHSSFKPISNADFIVPVEIDGTIHQVYVLKRPHVDEFLQRMGQLFECVLFTASLAKYADPVADLLDRWGVFRARLFRESCVFHRGNYVKDLSRLGRELSKVIIVDNSPASYIFHPENAVPVQSWFDDMTDTELLDLIPFFEGLSREDDEGHHHHHH”, for which the “soluble on expression in E. coli” value is recorded as “soluble”. With “MSLRSELPEGFFGPREWARLNAVADIIPGFPHTDFDTANGAEALAEADILLAAWGTPSLTRERLSRAPRLKMLAYAASSVRMVAPAEFWETSDILVTTAASAMAVPVAEFTYAAIIMCGKDVFRLRDEHRTERGTGVFGSRRGRSLPYLGNHARKVGIVGASRIGRLVMEMLARGTFEIAVYDPFLSAEEAASLGAKKAELDELLAWSDVVSLHAPILPETHHMIGARELALMADHAIFINTARGWLVDHDALLTEAISGRLRILIDTPEPEPLPTDSPFYDLPNVVLTPHIAGALGNELRALSDLAITEIERFVAGLAPLHPVHKQDMERMAEGHHHHHH”, the “soluble on expression in E. coli” value is “soluble”. Then “MSLRSGVEMAQRFARYPGAVANAARLGAACAFDVRLIAPRLPDFPVPPGHTEMSYLRELAMRGAAEKYGPPHQRPDVYRQLDYELDVIEQLGFPGYFLVVWEIVEFCRSRGILCQGRGSAANSVVCYVLGITKADPIAFRLLFERFLSPERDGPPDIDVDIESGRREEVIQYVYSRYGRERAAQVATVITYRPRSAVRDMARALGYSPGQQDAWSKQLDRYGEIPRGSEADHDVPDDVVHLARQVLGFPRHLGIHSGGMVICDRPVAEVCPVEWARMPGRSVLQWDKDDCARIGVVKFDLLGLGMLSALRECFDLIETYHGVRLSLETIPPEDPAVYDMLCAADSVGVFQVESRAQMATLPRLQPRNFYDLVTEVAIIRPGPIQGGSVHPFIRRRRGREPVRYAHPLLRHSLERTYGVPLFQEQIMQMAIDVAGLTPAEADHLRQAMGAKREGHHHHHH”, with “soluble”.
